The target of the assay is T1, Human soluble IL6-R (human, UniProt P08887 20-358).
T1 construct: Bought soluble receptor; biotinylated in some Alphascreen assays; also called sIL6-R; hIL-6R
T1 sequence (looked up): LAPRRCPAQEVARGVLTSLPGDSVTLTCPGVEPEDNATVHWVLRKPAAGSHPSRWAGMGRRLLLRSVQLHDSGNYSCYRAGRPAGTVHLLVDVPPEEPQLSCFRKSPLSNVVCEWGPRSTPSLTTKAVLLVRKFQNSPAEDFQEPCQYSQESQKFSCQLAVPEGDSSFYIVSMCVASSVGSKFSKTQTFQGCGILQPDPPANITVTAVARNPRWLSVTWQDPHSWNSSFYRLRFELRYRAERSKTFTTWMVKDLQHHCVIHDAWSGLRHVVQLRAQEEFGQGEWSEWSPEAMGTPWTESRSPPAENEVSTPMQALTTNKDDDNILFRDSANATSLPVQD
Put plainly: SPR (Biacore 3000), IL6-R on CM5 chip.

B1: IL6R71 (VHH)
VHH: EVQLVESGGGLVQPGGSLRLSCAASGFTFDDYDIGWFRQAPGKGREGVSGISSSDGNTYYADSVKGRFTISSDNAKNTVYLQMNSLRPEDTAVYYCAAEPPDSSWYLDGSPEFFKYWGQGTLVTVSS
notes: Humanized variant of IL6R04
The molecule B1 registered a Kd of 0.22 nM, a koff of 0.000153 s⁻¹ and an on-rate constant (kon) of 703000 M⁻¹ s⁻¹.

B2: IL6R72 (VHH)
VHH: EVQLVESGGGLVQPGGSLRLSCAASGFTFSDYDIGWFRQAPGKGREGVSGISSSDGNTYYADSVKGRFTISSDNAKNTVYLQMNSLRPEDTAVYYCAAEPPDSSWYLDGSPEFFKYWGQGTLVTVSS
notes: Humanized variant of IL6R04
In turn, B2 returned a Kd of 0.33 nM, a koff of 0.00018 s⁻¹ and an on-rate (kon) of 543000 M⁻¹ s⁻¹.

B3: IL6R81 (VHH)
VHH: EVQLVESGGGLVQPGGSLRLSCAASGFTFDDYGMSWVRQAPGRATEWVSAISWNGNNTYYTESMKGRFTISRDNAKNTVYLQMNSLRPEDTAVYYCVKGSTAIVGVPPTYPDEYDYWGQGTLVTVSS
notes: Humanized variant of IL6R13
The molecule B3 showed a Kd of 0.4 nM, a koff of 0.000128 s⁻¹ and a kon of 320000 M⁻¹ s⁻¹.

B4: IL6R82 (VHH)
VHH: EVQLVESGGGLVQPGGSLRLSCAASGFTFDDYGMSWVRQAPGKGLEWVSAISWNGNNTYYTESMKGRFTISRDNAKNTVYLQMNSLRPEDTAVYYCVKGSTAIVGVPPTYPDEYDYWGQGTLVTVSS
notes: Humanized variant of IL6R13
As to B4, binding was characterised by a dissociation constant (Kd) of 5.07 nM, the koff came out at 0.00314 s⁻¹ and the on-rate (kon) came out at 619000 M⁻¹ s⁻¹.

B5: IL6R83 (VHH)
VHH: EVQLVESGGGLVQPGGSLRLSCAASGFTFDDYGMSWVRQAPGRATEWVSAISWNGNNTYYTESMKGRFTISRDNAKNTLYLQMNSLRPEDTAVYYCVKGSTAIVGVPPTYPDEYDYWGQGTLVTVSS
notes: Humanized variant of IL6R13
B5 had a Kd of 0.34 nM, a koff of 0.00012 s⁻¹ and a kon of 350000 M⁻¹ s⁻¹.

B6: IL6R86 (VHH)
VHH: EVQLVESGGGLVQPGGSLRLSCAASGFTFDDYGMSWVRQAPGRALEWVSAISWNGNNTYYTESMKGRFTISRDNAKNTLYLQMNSLRPEDTAVYYCVKGSTAIVGVPPTYPDEYDYWGQGTLVTVSS
notes: Humanized variant of IL6R13
The molecule B6 came in with an off-rate constant (koff) of 0.0017 s⁻¹.

B7: IL6R87 (VHH)
VHH: EVQLVESGGGLVQPGGSLRLSCAASGFTFDDYGMSWVRQAPGKATEWVSAISWNGNNTYYTESMKGRFTISRDNAKNTLYLQMNSLRPEDTAVYYCVKGSTAIVGVPPTYPDEYDYWGQGTLVTVSS
notes: Humanized variant of IL6R13
B7 came in with a koff of 0.000105 s⁻¹.

B8: IL6R90 (VHH)
VHH: EVQLVESGGGLVQPGGSLRLSCAASGFTFDDYGMSWVRQAPGKALEWVSAISWNGNNTYYTESMKGRFTISRDNAKNTLYLQMNSLRPEDTAVYYCVKGSTAIVGVPPTYPDEYDYWGQGTLVTVSS
notes: Humanized variant of IL6R13
In turn, B8 returned a koff of 0.00192 s⁻¹.

B9: IL6R84 (VHH)
VHH: EVQLVESGGGLVQPGGSLRLSCAASGFTFDDYGMSWVRQAPGKGLEWVSAISWNGNNTYYTESMKGRFTISRDNAKNTLYLQMNSLRPEDTAVYYCVKGSTAIVGVPPTYPDEYDYWGQGTLVTVSS
notes: Humanized variant of IL6R13
For B9, the affinity, expressed as Kd, was 5.36 nM; the dissociation rate constant (koff) was 0.00409 s⁻¹; the kon was determined as 762000 M⁻¹ s⁻¹.

B10: IL6R89 (VHH)
VHH: EVQLVESGGGLVQPGGSLRLSCAASGFTFDDYGMSWVRQAPGRGTEWVSAISWNGNNTYYTESMKGRFTISRDNAKNTLYLQMNSLRPEDTAVYYCVKGSTAIVGVPPTYPDEYDYWGQGTLVTVSS
notes: Humanized variant of IL6R13
For B10, the koff amounted to 0.00019 s⁻¹.

B11: IL6R85 (VHH)
VHH: EVQLVESGGGLVQPGGSLRLSCAASGFTFDDYGMSWVRQAPGRGLEWVSAISWNGNNTYYTESMKGRFTISRDNAKNTLYLQMNSLRPEDTAVYYCVKGSTAIVGVPPTYPDEYDYWGQGTLVTVSS
notes: Humanized variant of IL6R13
In the case of B11, the koff came out at 0.00206 s⁻¹.

The values above are taken from US20140221623A1 (Ablynx, published 2014).
